# B1: Myc-USP5 [not stated] / Flag-IRF3 [not stated] (parent complex)
# chain 1: MAELSEEALLSVLPTIRVPKAGDRVHKDECAFSFDTPESEGGLYICMNTFLGFGKQYVERHFNKTGQRVYLHLRRTRRPKEEDPATGTGDPPRKKPTRLAIGVEGGFDLSEEKFELDEDVKIVILPDYLEIARDGLGGLPDIVRDRVTSAVEALLSADSASRKQEVQAWDGEVRQVSKHAFSLKQLDNPARIPPCGWKCSKCDMRENLWLNLTDGSILCGRRYFDGSGGNNHAVEHYRETGYPLAVKLGTITPDGADVYSYDEDDMVLDPSLAEHLSHFGIDMLKMQKTDKTMTELEIDMNQRIGEWELIQESGVPLKPLFGPGYTGIRNLGNSCYLNSVVQVLFSIPDFQRKYVDKLEKIFQNAPTDPTQDFSTQVAKLGHGLLSGEYSKPVPESGDGERVPEQKEVQDGIAPRMFKALIGKGHPEFSTNRQQDAQEFFLHLINMVERNCRSSENPNEVFRFLVEEKIKCLATEKVKYTQRVDYIMQLPVPMDAALNKEELLEYEEKKRQAEEEKMALPELVRAQVPFSSCLEAYGAPEQVDDFWSTALQAKSVAVKTTRFASFPDYLVIQIKKFTFGLDWVPKKLDVSIEMPEELDISQLRGTGLQPGEEELPDIAPPLVTPDEPKGSLGFYGNEDEDSFCSPHFSSPTSPMLDESVIIQLVEMGFPMDACRKAVYYTGNSGAEAAMNWVMSHMDDPDFANPLILPGSSGPGSTSAAADPPPEDCVTTIVSMGFSRDQALKALRATNNSLERAVDWIFSHIDDLDAEAAMDISEGRSAADSISESVPVGPKVRDGPGKYQLFAFISHMGTSTMCGHYVCHIKKEGRWVIYNDQKVCASEKPPKDLGYIYFYQRVAS
# chain 2: MGTPKPRILPWLVSQLDLGQLEGVAWVNKSRTRFRIPWKHGLRQDAQQEDFGIFQAWAEATGAYVPGRDKPDLPTWKRNFRSALNRKEGLRLAEDRSKDPHDPHKIYEFVNSGVGDFSQPDTSPDTNGGGSTSDTQEDILDELLGNMVLAPLPDPGPPSLAVAPEPCPQPLRSPSLDNPTPFPNLGPSENPLKRLLVPGEEWEFEVTAFYRGRQVFQQTISCPEGLRLVGSEVGDRTLPGWPVTLPDPGMSLTDRGVMSYVRHVLSCLGGGLALWRAGQWLWAQRLGHCHTYWAVSEELLPNSGHGPDGEVPKDKEGGVFDLGPFIVDLITFTEGSGRSPRYALWFCVGESWPQDQPWTKRLVMVKVVPTCLRALVEMARVGGASSLENTVDLHISNSHPLSLTSDQYKAYLQDLVEGMDFQGPGES
# Variants of: B1
# Assay: in situ PLA; HEK293T cells co-transfected for 24 h, then infected with SeV (0.1 MOI) for 6 h; parent: 12; read off a plot
row,Variant,response
1,chain 1 C335A,~12 complex number/cell

# Source: article PMC11737852 (2025)
